Experimental data as given in publication PMC12918760.

T1: NONO homodimer (human, UniProt Q15233 53-312)
T1 sequence: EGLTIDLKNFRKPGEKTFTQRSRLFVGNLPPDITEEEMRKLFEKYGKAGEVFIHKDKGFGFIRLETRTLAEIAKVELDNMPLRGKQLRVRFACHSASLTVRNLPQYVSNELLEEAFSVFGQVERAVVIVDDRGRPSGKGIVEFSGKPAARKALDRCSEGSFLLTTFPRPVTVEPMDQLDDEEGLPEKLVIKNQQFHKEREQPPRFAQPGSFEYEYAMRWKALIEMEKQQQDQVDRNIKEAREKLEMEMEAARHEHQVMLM

T2: NONO in NONO/SFPQ heterodimer;SFPQ in NONO/SFPQ heterodimer (human;human?, UniProt Q15233;P23246 53-312;276-535, |)
T2 sequence 1: T1 sequence
T2 sequence 2: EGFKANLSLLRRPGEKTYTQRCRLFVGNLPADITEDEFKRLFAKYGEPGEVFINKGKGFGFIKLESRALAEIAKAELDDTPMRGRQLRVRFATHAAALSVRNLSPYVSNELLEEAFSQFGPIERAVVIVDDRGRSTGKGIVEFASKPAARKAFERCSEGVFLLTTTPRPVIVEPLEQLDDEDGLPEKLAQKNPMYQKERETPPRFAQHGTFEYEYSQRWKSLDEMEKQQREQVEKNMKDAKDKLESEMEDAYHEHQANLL

B1: GU-rich RNA oligo 1 (ssRNA)
RNA: TGUGUGUGGCCGU
modifications: 5' residue printed as T
B2: GU-rich RNA oligo 2 (ssRNA)
RNA: TUGUGCCGUCU
modifications: 5' residue printed as T

Assays:
NONO homodimer = molecular target: T1, NONO homodimer; test: MST
[1] = molecular target: T2, NONO in NONO/SFPQ heterodimer;SFPQ in …; test: MST

| Binder | binding result (NONO homodimer) | binding result [1] |
| --- | --- | --- |
| B1 | binds | binds |
| B2 | binds | binds |
